Target: Human full-length GIRK4 (purified) (human) (UniProt P48544)
Sequence of UniProt P48544 (P48544 whole entry): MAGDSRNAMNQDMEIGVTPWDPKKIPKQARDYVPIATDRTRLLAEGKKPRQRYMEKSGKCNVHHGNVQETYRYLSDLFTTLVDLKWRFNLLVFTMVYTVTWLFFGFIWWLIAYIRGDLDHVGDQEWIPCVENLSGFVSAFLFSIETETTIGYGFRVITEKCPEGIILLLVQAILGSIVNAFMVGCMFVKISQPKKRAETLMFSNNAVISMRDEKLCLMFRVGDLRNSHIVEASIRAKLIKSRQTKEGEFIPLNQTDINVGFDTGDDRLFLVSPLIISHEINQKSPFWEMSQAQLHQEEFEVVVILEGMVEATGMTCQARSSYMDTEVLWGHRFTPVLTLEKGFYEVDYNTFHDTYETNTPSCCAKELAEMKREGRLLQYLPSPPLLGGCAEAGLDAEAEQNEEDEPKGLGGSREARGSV

inward GIRK current in planar lipid bilayers: increase on fusing further Gβγ vesicles to a bilayer holding GIRK and Gβγ at 1:0.1 (wt:wt), with 32 µM C8-PIP2 and 32 mM Na+: 5 fold
Substance: Human lipid-anchored Gβ1γ2 (from UniProt P62873 1-340; P59768 1-71) (complex)
